T1: SPARC (Homo sapiens, UniProt P09486)
T1 sequence (P09486 18-303): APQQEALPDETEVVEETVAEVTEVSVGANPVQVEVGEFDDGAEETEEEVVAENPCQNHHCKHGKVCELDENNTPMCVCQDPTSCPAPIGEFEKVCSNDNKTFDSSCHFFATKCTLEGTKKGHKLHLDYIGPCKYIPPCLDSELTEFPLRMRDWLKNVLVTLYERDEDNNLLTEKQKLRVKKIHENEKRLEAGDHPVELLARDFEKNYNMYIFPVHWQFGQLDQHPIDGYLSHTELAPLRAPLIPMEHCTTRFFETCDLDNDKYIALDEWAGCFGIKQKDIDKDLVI


Target: T1, SPARC
Assay: scFv phage display screening and soluble scFv ELISA with SPARC as antigen
Assay type: binding
Source text: The overall strategy was to first, screen a human antibody phage display libraries by ELISA with SPARC as antigen.
At the start, HuScL-3® was screened four rounds (three rounds with acidic elution and one round with competitive elution) and 17 positive clones were selected by phage ELISA. […] After that, the binding specificity of the two unique antibodies was validated by soluble scFv ELISA.
Next, HuScL-2® was screened for three rounds (two rounds with trypsin-digestion elution and one round with competitive elution). In the end, 30 positive clones were selected by phage ELISA. According to the sequencing results, 29 clones shared one antibody sequence and the remaining one clone encoded another unique antibody. After that, the binding specificity of these two antibodies was validated by soluble scFv ELISA as well.

Molecule	SPARC binding of scFv
ScFv 3-2: unique ScFv against SPARC from HuScL-3 library, among SEQ ID NOs: 113-116 (protein) scFv: EIVMTQSPGTLSLSPGDRATLSCRASQSVSGYLAWYQQKPGQAPRLLIYDASNRATGIPARFSGSGSGTDFTLTISSLQAEDVAVYYCQQYYSTLPTFGQGTKLEIKRSGGSTITSYNVYYTKLSSSGTQVQLVQSGGGVVQPGRPLKLSCAASGFTFSSYAMHWVRQAPGKGLEWVAVISYDGSNKYYADSVKGRFTISRDNSKNTLYLQMNSLRAEDTAVYYCARDLSWNDAFDIWGQGTMVTVSSAS	SPARC binding activity
ScFv 2-2: unique ScFv against SPARC from HuScL-2 library, among SEQ ID NOs: 113-116 (protein) scFv: EVQLLESGGGLVQPGGSLRLSCAASGFTFSSYAMSWVRQAPGKGLEWVSHIQGQGRATYYADSVKGRFTISRDNSKNTLYLQMNSLRAEDTAVYYCAKTHGKFDYWGQGTLVTVSSGGGGSGGGGSGGGGSTDIQMTQSPSSLSASVGDRVTITCRASQSISSYLNWYQQKPGKAPKLLIYRASRLQSGVPSRFSGSGSGTDFTLTISSLQPEDFATYYCQQPSGVPTTFGQGTKVEIK	SPARC binding activity
ScFv 2-1: unique ScFv against SPARC from HuScL-2 library, among SEQ ID NOs: 113-116 (protein) scFv: EVQLLESGGGLVQPGGSLRLSCAASGFTFSSYAMSWVRQAPGKGLEWVSMITPLGSTTAYADSVKGRFTISRDNSKNTLYLQMNSLRAEDTAVYYCAKRAGVFDYWGQGTLVTVSSGGGGSGGGGSGGGGSTDIQMTQSPSSLSASVGDRVTITCRASQSISSYLNWYQQKPGKAPKLLIYRASTLQSGVPSRFSGSGSGTDFTLTISSLQPEDFATYYCQQNDSFPTTFGQGTKVEIKR	SPARC binding activity
